According to PMC2736636:
Where two headings read alike, the source gives them in different places.

Experiments:
Assay in all cases: EMSA
[1] = target: T1, O6-alkylguanine-DNA alkyltransferase (AGT, MGMT) (human, UniProt P16455 1-207)
[2] = target: T1, O6-alkylguanine-DNA alkyltransferase …; remark: listed apart in the source
[3] = target: T1, O6-alkylguanine-DNA alkyltransferase …; remark: listed apart in the source

T1 sequence (P16455 whole entry): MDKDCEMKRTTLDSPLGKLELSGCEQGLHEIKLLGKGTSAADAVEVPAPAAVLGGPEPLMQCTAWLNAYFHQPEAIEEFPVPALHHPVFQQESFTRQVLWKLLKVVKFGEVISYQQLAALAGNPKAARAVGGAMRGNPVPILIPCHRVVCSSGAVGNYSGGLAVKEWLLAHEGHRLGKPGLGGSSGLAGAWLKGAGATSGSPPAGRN

B1: duplex 16mer (A/B) (dsDNA)
DNA 1: GACTGACTGACTGACT
DNA 2: AGTCAGTCAGTCAGTC
B1 was tested, and the Ka [1] was 16900 M⁻¹, the Ka [2] was 3.97 ± 0.02 log10 M-1 and the Ka [3] was 2.58e+06 M⁻¹.
